Measurements published in US20220251184A1 (Regeneron, published 2022).

How the values were obtained:
[1] = target: T1, human BMP6 (R&D Systems, Cat #507-BP) (human, UniProt P22004 375-513, limits assumed); experiment: SPR (MASS-1), mAb captured on anti-human Fc, hBMP6 in solution, 25 C; 25 C
T1 construct: Bought protein (R&D Systems 507-BP or 507-BP/CF); also called hBMP6; hBMP-6
T1 sequence: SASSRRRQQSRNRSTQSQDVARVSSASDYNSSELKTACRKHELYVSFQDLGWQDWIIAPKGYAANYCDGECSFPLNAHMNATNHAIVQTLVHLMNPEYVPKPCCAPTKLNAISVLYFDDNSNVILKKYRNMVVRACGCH
Description: (§1) Equilibrium dissociation constants (KD values) for human and mouse BMP6 binding to purified anti-BMP6 monoclonal antibodies of this invention were determined using a real-time surface plasmon resonance (SPR) biosensor instrument, MASS-1. All binding studies were performed in 10 mM HEPES, 150 mM NaCl, 3 mM EDTA, 1 μg/mL Heparin, and 0.05% v/v Surfactant Tween-20, pH 7.4 (HBS-EHT) running buffer at 25° C. and 37° C. The HCA sensor surface was first derivatized by amine coupling the monoclonal mouse anti-human Fc antibody (GE, #BR100839) and anti-BMP6 monoclonal antibodies were individually captured. Different concentrations of human BMP6 reagents (hBMP6; R&D Systems, Cat #507-BP; 60 nM-0.94 nM; 4-fold serial dilution) or mouse BMP6 (mBMP6; R&D Systems, Cat #6325-BM; 60 nM and 15 nM) prepared in HBS-EHT running buffer were injected over the captured anti-BMP6 monoclonal antibody for 4 minutes at a flow rate of 30 μL/minute, while the dissociation of BMP6 reagent bound to captured anti-BMP6 monoclonal antibody was monitored for 10 minutes in HBS-EHT running buffer. Kinetic association (kₐ) and dissociation (kd) rate constants were determined by fitting the real-time binding sensorgrams to a 1:1 binding model with mass transport limitation using Scrubber 2.0c software. […]

[2] = target: T1, human BMP6 (R&D Systems, Cat #507-BP); experiment: SPR (MASS-1), mAb captured on anti-human Fc, hBMP6 in solution, 37 C; calculated with kd fixed at 1.00E-05
Description: as §1

[3] = target: T1, human BMP6 (R&D Systems, Cat #507-BP); experiment: SPR (MASS-1), mAb captured on anti-human Fc, hBMP6 in solution, 37 C; 37 C
Description: as §1

B1: H4H17871P (antibody, V domains shown)
VH: EVQLVESGGGLVQPGGSLRLSCAASGFTFNNYAMSWVRQAPGKGLEWVSAISGSGDSTYYADSVKGRFTISRDNSKNTLYLQMNSLRAEDTAVYYCAKRSRSSPFDPWGQGTLVTVSS
VL: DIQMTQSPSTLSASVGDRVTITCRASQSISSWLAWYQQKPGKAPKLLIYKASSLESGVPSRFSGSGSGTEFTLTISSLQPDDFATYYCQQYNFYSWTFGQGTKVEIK
notes: Fully human antibody; also called anti-BMP6 monoclonal antibody; BMP6 antibody of the invention
B1 gave a Kd [1] of 195 pM, a Kd [2] of no more than 240 pM and a t1/2 [2] of no less than 19.2 h.

B2: H4H17855P (antibody, V domains shown)
VH: EVQLVESGGGLVQPGGSLRLSCAASGFTFSSYAMSWVRQAPGKGLEWVSAISGSGGRTYYTDSVKGRFTMSRDNSKNTLYLQMNSLRAEDTAVYYCAKRPYNSPFDPWGQGTLVTVSS
VL: EIVLTQSPGTLSLSPGEGATLSCRASQSVSSSYLAWYQQKPGQAPRLLIYGASSRATGIPDRFSGSGSGTDFTLTISRLEPEDFVVYYCQHFGGTPFTFGGGTKVEIK
notes: as for B1
B2 was tested, and the koff [3] was 8.17e-05 s⁻¹.
